Assay results: IntAct's records for PubMed 23217712

How the values were obtained:
cg13_yeast CLN3 = cg13_yeast CLN3 (UniProt P13365)
pcl2_yeast PCL2 = pcl2_yeast PCL2 (UniProt P25693)
clg1_yeast CLG1 = clg1_yeast CLG1 (UniProt P35190)
Chain of clg1_yeast CLG1 (P35190 whole entry): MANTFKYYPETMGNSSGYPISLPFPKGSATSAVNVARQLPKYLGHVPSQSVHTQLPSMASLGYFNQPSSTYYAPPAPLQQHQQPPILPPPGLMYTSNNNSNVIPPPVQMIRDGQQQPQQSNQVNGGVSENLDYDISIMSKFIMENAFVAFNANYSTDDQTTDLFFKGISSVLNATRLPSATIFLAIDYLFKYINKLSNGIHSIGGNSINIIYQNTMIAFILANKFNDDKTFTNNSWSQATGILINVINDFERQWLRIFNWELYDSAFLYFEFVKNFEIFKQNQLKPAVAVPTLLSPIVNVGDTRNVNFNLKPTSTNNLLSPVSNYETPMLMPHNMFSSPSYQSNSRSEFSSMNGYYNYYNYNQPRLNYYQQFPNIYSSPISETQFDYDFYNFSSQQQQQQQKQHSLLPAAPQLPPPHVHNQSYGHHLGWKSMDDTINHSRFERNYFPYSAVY

Chain of pcl2_yeast PCL2 (P25693 whole entry): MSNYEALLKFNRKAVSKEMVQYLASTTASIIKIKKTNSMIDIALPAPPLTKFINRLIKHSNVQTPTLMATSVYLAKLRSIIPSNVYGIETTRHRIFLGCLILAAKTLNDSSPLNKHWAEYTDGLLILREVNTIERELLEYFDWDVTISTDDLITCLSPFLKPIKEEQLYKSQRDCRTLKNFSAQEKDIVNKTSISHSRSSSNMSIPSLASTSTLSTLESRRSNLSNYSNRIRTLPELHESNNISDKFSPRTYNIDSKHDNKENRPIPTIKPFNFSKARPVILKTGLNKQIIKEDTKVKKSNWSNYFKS
Chain of cg13_yeast CLN3 (P13365 whole entry): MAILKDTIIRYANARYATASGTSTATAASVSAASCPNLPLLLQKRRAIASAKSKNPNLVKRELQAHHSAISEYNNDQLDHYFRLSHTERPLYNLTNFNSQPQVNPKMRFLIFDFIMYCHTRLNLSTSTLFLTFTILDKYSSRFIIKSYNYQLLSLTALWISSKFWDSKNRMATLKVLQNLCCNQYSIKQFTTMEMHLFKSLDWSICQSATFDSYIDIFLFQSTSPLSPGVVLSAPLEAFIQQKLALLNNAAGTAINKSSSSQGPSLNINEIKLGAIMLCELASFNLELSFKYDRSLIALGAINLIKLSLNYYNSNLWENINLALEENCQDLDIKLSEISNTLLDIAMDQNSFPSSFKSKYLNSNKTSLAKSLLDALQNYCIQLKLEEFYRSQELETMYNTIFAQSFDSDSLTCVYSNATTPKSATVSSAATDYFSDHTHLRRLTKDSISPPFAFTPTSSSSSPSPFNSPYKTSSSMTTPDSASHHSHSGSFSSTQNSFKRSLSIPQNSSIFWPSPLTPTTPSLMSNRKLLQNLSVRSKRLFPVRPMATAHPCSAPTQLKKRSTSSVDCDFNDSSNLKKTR

Row | Substance | effect of a mutation on the interaction (cg13_yeast CLN3) | effect of a mutation on the interaction (pcl2_yeast PCL2) | effect of a mutation on the interaction (clg1_yeast CLG1)
1 | Heat shock protein SSA1 (Saccharomyces cerevisiae), P10591 T36A | disrupting interaction strength | increasing interaction strength | increasing interaction strength
2 | Heat shock protein SSA1 (Saccharomyces cerevisiae), P10591 T36E | – | decreasing interaction strength | decreasing interaction strength
